# Results published in patent US7592003B2, “Regulation of toll-like receptors on stem cells” (Oklahoma Medical Research Foundation, priority 2005, dated 2009).
# System: LKS^− cells
# Assay: Serum-free culture of LKS- myeloid/erythroid progenitors (and CMP, GMP subsets), F4/80 by flow cytometry
# Assay type: cell-based, mouse
# Settings: 72 h, no other growth factors
# Experimental: FIGS. 4A-D—Activation of TLRs through MyD88 bypasses normal differentiation cues and drives monocytes/macrophages differentiation of myeloid progenitors. (FIG. 4A) Sorted LKS^− cells from C57BL/6 or MyD88^−/− mice were stimulated with medium alone, LPS (10 μg/ml), Pam3CSK4 (1 μg/ml), M-CSF, or GM-CSF. After 72 h in culture, cells were analyzed by flow cytometry for expression of F4/80. Open histograms depict staining with the isotype matched Ab for F4/80. Percentages given in each histogram indicate the frequencies of F4/80^+ cells and the results are representative of three independent experiments. (FIG. 4B) The bar graph depicts yields, i.e., numbers of F4/80^+ cell recovered per input progenitor. Data represent mean values with standard deviations from triplicate cultures and the results are representative of three independent experiments (*P<0.005). […] After 72 h in culture, cells were analyzed by flow cytometry for expression of F4/80. […] After 24 or 48 h in culture, cells were analyzed by flow cytometry for expression of F4/80. […]
# FIG. 13—TLR stimulation causes rapid production of F4/80^+ cells from LKS^− cells. […] Stimulated wells were analyzed after 24 h or 48 h of culture by flow cytometry for expression of F4/80. […]
molecule,measurement,value
"GM-CSF: Recombinant mouse GM-CSF, colony stimulating factor, 20 ng/ml (protein, UniProt P01587 18-141, looked up) Granulocyte-macrophage …: APTRSPITVTRPWKHVEAIKEALNLLDDMPVTLNEEVEVVSNEFSFKKLTCVQTRLKIFEQGLRGNFTKLKGALNMTASYYQTYCPPTPETDCETQVTTYADFIDSLKTFLTDIPFECKKPGQK",Acquisition of F4/80 by LKS- cells,only a subset of LKS^− myeloid progenitors responded
